Test results taken from the DeepSol protein solubility set.

Assay: soluble on expression in E. coli; label from the status in PepcDB or PDB records

**Q.** For “MTEVIGIKFEENGAVEYVVPDKNYTKGDFVVVLEKKDKRLAQVVMENTVFPEVSLPVDLNRVEGLASKRDFARYDENLLKAEQSMGVVADLIAQNQLDMKVVDIVFPLNSSYVLISFVAEKRVDFRQLLEDLAAYFKTRIELRQISSREESKIYGGLGPCGRALCCSSFLGEFPPVSIKMAKNQSLSLNSGKMNGVCGRLMCCLSYEDDFYRDSKASYPDLGEEIETKEGRGQVIAIDVIAGTVKVMFEKGGAPLTYGVEEVQLNGKAAAALEHHHHHH”, which “soluble on expression in E. coli” value is on record?
**A.** soluble

**Q.** With “GAQNQDCAFFFPNQEGEQITRNCYTADGKLTNILVYRVDQAYEYPSGMEVVANYTFADAAGKTLNSGQMVARCSDGNFSMSMGDVATFPTALNMMNADVYMMGDLMNYPDAFSNPMNPGDDDEFDDGTLRLYQKGNKNNRAEISVFDREFVTTETVNTPAGAFYCTKVKYEMNIWTPKETIKGYGYEWYAPNIGIVRSEQYNNKKELQSYSVLERIKK” as the sequence, how does the “soluble on expression in E. coli” value read?
**A.** soluble

**Q.** For “MNALIVPQWPLPKGVAACSSTRIGGVSLSPYDSLNLGAHCGDNPEHVEENRKRLFAAGNLPSKPVWLEQVHGKNVLRLTGEPYASKRADASYSNTPGTVCAVMTADCLPVLFCNREGTEVAAAHAGWRGLCEGVLEETVTCFADKPENIIAWLGPAIGPAAFEVGPEVRDAFLAKDAQADSAFLPHGEKFLADIYQLARQRLANTGVEHVYGGDRCTFSESETFFSYRRDKTTGRMASFIWLI”, which “soluble on expression in E. coli” value is on record?
**A.** soluble

**Q.** With “MGDASTQLSSYVKQVQTGHKPSTKEIVRFSKLFEDQLALEHLDRPQLVALCKLLELQTFGTNNLLRFQLLMKLKSIKADDEIIAKEGVTALSVSELQAACRARGMRSLGLTEEQLRQQLTEWQDLHLKENVPPSLLLLSRTFYLIDVKPKPIEIPLSGEAPKTDILVELPTFTESKENMVDLAPQLKGTKDEDFIQPPPVTSSPITPSTPISLPKGPITSSEEPTLQAKSQMTAQNSKASSKGA” as the sequence, how does the “soluble on expression in E. coli” value read?
**A.** soluble

**Q.** For “EKEKDTIAAEHKQEASVLLNLHRNKINYLIGETMARMTSLSIAIDRPVDIKKMQSILEKTFDSEPRFSGLYFLNAKGDVTASTTELKTKVNLADRSFFIKAKETKKTVISDSYSSRITGQPIFTICVPVLDSKRNVTDYLVAAIQIDYLKNLINLLSPDVYIEVVNQDGKMIFASGQASHAEDQKPVSGYLDDISWNMKVYPNPVTIEELSKSL”, which “soluble on expression in E. coli” value is on record?
**A.** soluble

**Q.** With “MGSDKIHHHHHHEKAVTHSESKEFKPETVKIGEDGELNIVPLYAPYQTYLKASLKADTSETDSKNYAEYVLRYIDKIGEKENFDPTTLETFFMLKATAYEQDMLNQTNELMKQHDEIKDIITKNYSASYEALPKKKATIFIAPSNLEFWSMTDPLAGVSGAAFQDSIIIQLNPNFDKEVLAYTIAHEYHHLVLNDTPELSRIDTSLDSVIFEGKADAFADQIVTDVSPPWNIPMDDTTKKHVARLIGNGEADYQEITMGNTEKDIPLWSRYSLGRDILTHHLKANPDLSIKTWTYEENHAILNGYKYQKLLE” as the sequence, how does the “soluble on expression in E. coli” value read?
**A.** not soluble

**Q.** Which “soluble on expression in E. coli” value does the source give for “MGSDKIHHHHHHLNGHGYHVTGTKTTQDGVEAARMSGIECYQLVLTPELECDADELSALLQVDVLIVTLPASRTAEGGEGYAQAVQQLVNMARVFHVPRIIFTSSTSVYGDGSGTVRETSPLQPTTVAGKTLVSLEQWLQHLPDISVDILRLAGLVGGDRHPGRFLAGKTNLPRGNHGVNLVHQEDVLAAILLLLKLPNGGHIYNLCATEHPARQDFYPEQARRLHVSTPQFAPVTDSSQGRIVDGQRICHELGFDYQYPNPSTMPLNAGESR” here?
**A.** not soluble

**Q.** Which “soluble on expression in E. coli” value does the source give for “MADYNIPHFQNDLGYKIIEIGVKEFMCVGATQPFDHPHIFIDMGSTDEKICPYCSTLYRYDPSLSYNQTNPTGCLYNPK” here?
**A.** not soluble

**Q.** With “SDYDADELAEALQPVIVNTPHLKKPIGLIGAKGEFHPVLLAETSFPVQKKLTLKQAKGDFLIGVYEGDHHIEEKTLEPIPKEENAEEDDESEWSDDEPEVVREKLYTLGTKLMELGIKNANGVEIIFNINKDGALRVTARDLKTGNAVKGEL” as the sequence, how does the “soluble on expression in E. coli” value read?
**A.** not soluble

**Q.** With “VKFIADPSGVDVLEEVEVFALGPTEVIVVGRLEFIYHEASDEYLEKFEGKLKKGVWYGTNIAVIFTLYRPAGSMEVDKIILDNTFEEIL” as the sequence, how does the “soluble on expression in E. coli” value read?
**A.** not soluble

**Q.** With “MSLGLINVLIADDQTLMREGLKTIIDLEDDMNVTGLAKNGKEVLDQIPCLLPHVILMDIQMPIMNGIECLKVVKRIYPHINVLMLTTFEDDDYIIESLVGGANGFLLKDLNYDQLIYSIRQSVDGQMLIPNSIAVKLAKQLSKYNELTEVDLQIEKLKKEGLHFSERERQIASLLAQGLTNKKIAEKLYITEGTVKNYISEIYSKIGIRDRMQASTYLRELGINDEGHHHHHH” as the sequence, how does the “soluble on expression in E. coli” value read?
**A.** soluble

**Q.** With “MIICKTPREIEIMREAGRIVALTHQELKQHITPGITTKELDQIAEKTIQKYGATPSFKGYNGFPGSICASVNEELVHGIPGKRKLKEGDIISIDIGAKYNGYHGDSAWTYPVGNISESVQKLLDVTEKSLYLGLEQVKPGERLSNISHAVQTHAEENGFSIVREYVGHGIGQDLHEDPQIPHYGPPNRGPRLKPGMVICVEPMVNQGRRYVKTLSDDWTVVTVDGKWCAHFEHTIALTEAGYEILTTL” as the sequence, how does the “soluble on expression in E. coli” value read?
**A.** soluble

**Q.** With “MEDKLITLAILTYAKAQILKNVLENEGIEAYIHNVNLIQPVISSGVRLRIKESDLPHALQIIESSAWLSEDIIKGKESSSERNKEKRKVLIPIDFSNYSLKACQFGFSFANAINSEVVLLHAYFSPIYVPTIPYGTDNFNFQIEREESVKSMIETVHNELNKLSDTIKKKVESGEFPNIKYTCILRDGIPEEEILRYAKEYNPQIIIMGTRGRSQKDIDLIGSVTAEVIERSKSFVYAIPEHTPLKTFNDIKKVAFVTNFDQRDLIAFDSLINAFKSFHFAVSFIHLSTDNDAWNEIKLAGIKDYFQKQYSKLELYYNVVKEDNILNNLDNYVKEENIDVICITNYKRNIFARLFNPSIARKMIFHANTPILVIK” as the sequence, how does the “soluble on expression in E. coli” value read?
**A.** not soluble

**Q.** For “MSLVNTIGFDREKYIEMQSQHIRERREALGGKLYLEMGGKLFDDMHASRVLPGFTPDNKIAMLDRIKDEVEILVCINAKDLERHKIRADLGISYEEDVLRLVDVFRDRGFLVEHVVLTQLENDNRLALAFIERLQRLGIKVSRHRVIPGYPTDMDRIVSDEGFGLNEYAETTRDLVVVTAPGPGSGKLATCLSQVYHEHKRGVAAGYAKFETFPIWNLPLEHPVNLAYEAATVDLNDANVIDHFHLAAYGEQTVNYNRDVEAFPLLKTLLERLMGESPYQSPTDMGVNMAGNCISDDAACRHASEQEIIRRYFKALVEEARTGKDSTQSDRAAVVMAKAGIKASQRVVVEPARQVEERTSLPGCAIELVDGSIITGATSDLLGCSSSMLLNALKHLAGIDDAIHLLSPESIEPIQTLKTVHLGSSNPRLHTDEVLIALSVSAATDSNAQKALDQLKNLRGCDVHTTTILGSVDEGIFRNLGVLVTSDPKFQKNKLYQKREGHHHHHH”, which “soluble on expression in E. coli” value is on record?
**A.** soluble

**Q.** For “MKTNSEELTVFVQVVESGSFSRAAEQLEMANSAVSRIVKRLEEKLGVNLLNRTTRQLNLTEEGAQYFRRAQRILQEMAAAETEMLAVHEVPQGVLRVDSAMPMVLHLLAPLAAKFNERYPHIRLSLVSSEGYINLIERKVDIALRAGELDDSGLRARHLFDSHFRVVASPEYLAKHGTPQSAEDLANHQCLGFTEPGSLNTWAVLDAQGNPYKISPHFTASSGEILRSLCLSSCGIACLSDFLVDNDITEGKLIPLFAEQTSNKTHPFNAVYYSDKAVNLRLRVFLDFLVKELGKNMNRTNTK”, which “soluble on expression in E. coli” value is on record?
**A.** not soluble

**Q.** For “GSMDQNTTEPVAATETLAEVPEHVLRGLPEEVRLFPSAVDKTRIGVWATKPILKGKKFGPFVGDKKKRSQVKNNVYMWEVYYPNLGWMCIDATDPEKGNWLRYVNWACSGEEQNLFPLEINRAIYYKTLKPIAPGEELLVWYDGEDNPEIAAAIEEERASARS”, which “soluble on expression in E. coli” value is on record?
**A.** soluble

**Q.** With “MSSQLNHGTLPKISIVTPSYNQAQYLEATMRSILDQGYPDLEYIVMDGGSTDGSTEIIQKYSDRLTYWESAPDKGQADAIFRGFERATGEIFCYVNSDDLLLPGSLEMVGRWFREHPDEEWVVGGTILIDGLGIPIIRSRRGLPEADLGVKVTFKRLLLHNCGGFHQPASFWRRSAFEQAGGFDRTLRFCFDYDLFFRLAKRRPSGRIRSFLAAFRYHPASKTSTLESVFREENETLWRRYGRYLYSENQIRNFAHKQTTRDMWNNRIIKLGFYLKILNVSNAIGSLEHHHHHH” as the sequence, how does the “soluble on expression in E. coli” value read?
**A.** not soluble
